Experimental data from article PMC8562849 (The Journal of Cell Biology, 2021).
Values belong to the molecule of their own block, whether it stands above or below them.

What was measured:
Pin1 (GST-Pin1) = Pin1 (GST-Pin1) (UniProt Q13526); assay: GST-Pin1 pull-down from U2OS lysate; conditions: reference: SST-MTAP (wild type); sites S398,S405,T408
spindly = spindly (UniProt Q96EA4); assay: SBP affinity purification, immunoblot; conditions: reference: SST-MTAP, sites S398,S405,T408
[1] = target: GST-tagged Pin1 (prolyl isomerase interacting NIMA 1) (UniProt Q13526 1-163); assay: pull-down

binding against the reference (Pin1 (GST-Pin1)): weaker
Molecule: hLIC1 (dynein light intermediate chain 1) (from UniProt Q9Y6G9) AAA-MTAP

binding against the reference (spindly; prometaphase lysate): weaker
Molecule: hLIC1 (dynein light intermediate chain 1) (from UniProt Q9Y6G9) AAA-MTAP, prometaphase lysate

Second part, the molecule before the results:

Molecule: hLIC1 (dynein light intermediate chain 1) (from UniProt Q9Y6G9) AAA-MTAP, metaphase lysate
binding against the reference (spindly; metaphase lysate): weaker

B1: purified rLIC1-CTD (aa 389-523), phosphorylated in vitro by cdk1-cyclin B (domain or fragment, rat, UniProt Q9QXU8 389-523, looked up)
chain: TAAGRPVDASPRVPGGSPRTPNRSVSSNVASVSPIPAGSKKIDPNMKAGATSEGVLANFFNSLLSKKTGSPGGPGVGGSPGGGAAGASTSLPPSAKKSGQKPVLSDVHAELDRITRKPASVSPTTPPSPTEGEAS
modifications: phosphorylated in vitro by cdk1-cyclin B (three cdk1 sites S398, S405, T408)
binding result [1]: binds
